Literature values, collected in PMC6396024, “Artemin and an Artemin-Derived Peptide, Artefin, Induce Neuronal Survival, and Differentiation Through Ret and NCAM” (Frontiers in Molecular Neuroscience, 2019).

Test system: NCAM
Details: ref Paratcha et al., 2003; Nielsen et al., 2009; cited from earlier work
Text: We have previously shown that the GDNF-binding site for NCAM is localized to the heel region and that gliafin, a GDNF-derived peptide covering this region, binds to NCAM ([Nielsen et al., 2009]). As the tertiary structure of ARTN is similar to that of GDNF, we speculated that the artefin motif also contains a potential binding site for NCAM. […] Whether NCAM can be an alternative receptor for other GFLs has been establish ...

B1: GDNF: glial cell line-derived neurotrophic factor (protein, UniProt P39905 78-211, looked up)
Glial cell line-derived …: SPDKQMAVLPRRERNRQAAAANPENSRGKGRRGQRGKNRGCVLTAIHLNVTDLGLGYETKEELIFRYCSGSCDAAETTYDKILKNLSRNRRLVSDKVGQACCRPIAFDDDLSFLDDNLVYHILRKHSAKRCGCI
- interaction with NCAM: interacts directly with NCAM
